In publication PMC5027247 one finds Kd data, which are given here for one molecule.

Assay in all cases: ITC; 25 °C; 50 mM Tris pH 7.5, 100 mM NaCl, 1 mM EDTA, 1 mM DTT; 1 mM TBK1 fragment in the syringe, 0.1 mM OPTN or NAP1 fragment in the cell; one-site binding model
Test [1] deals with OPTN L47Q (ITC sample) (human) (UniProt Q96CV9).
The target of test [2] is OPTN L54Q (ITC sample) (human) (UniProt Q96CV9).
The target in test [3] is OPTN M44Q (ITC sample) (human) (UniProt Q96CV9).

B1: TBK1 CTD (residues 677–729) (domain or fragment)
chain: YPSSNTLVEMTLGMKKLKEEMEGVVKELAENNHILERFGSLTMDGGLRNVDCL
As usually defined, the Kd is a measure of binding affinity in units of concentration. Higher therefore signals weaker binding. Take B1: the Kd amounted to 26 µM in test [1], 20 µM in test [2] and 22.6 µM in test [3].
